Data on four molecules can be found in US20180117168A1, “CYCLODEXTRIN-BASED POLYMERS FOR THERAPEUTIC DELIVERY” (priority 2013, published 2018).

The subject of data set [1] is Adjuvant-Induced Arthritis (AIA) in Lewis Rat. The experiment in a line: Lewis rat adjuvant-induced arthritis (AIA) model. The data set is classed as in vivo. The following applies: for % Max Change in Paw Volume / % Max Change in body weight: day of maximum in brackets; for Spleen weight with treatment (in words): regimens of Table 4. An excerpt:
Animal and Facility: 75 female Lewis Rats at the age of 6 weeks were allowed to acclimate for 7 days in the animal facility (Cephrim Biosciences, Inc., Wellesley, Mass.). Animal housing, handling and procedures followed protocols and guidelines approved by the Institutional Animal Care and Use Committee (IACUC) of Cephrim Biosciences, Inc.
In vivo Adjuvant-Induced Arthritis (AIA) in Lewis Rat: The adjuvant used for induction of arthritis was purchased from Chondrex Inc. (Redmond, Wash.), a suspension that contains 10 mg/mL of heat-killed mycobacteria in incomplete Freund's adjuvant. On the day of induction, the rat was first anesthetized and 0.05 mL of the Complete Freund's Adjuvant (CFA) was subcutaneously injected into the sub-plantar area of the rat footpad. The needle was inserted just under the skin of the footpad pointing toward the ankle to maximize the immune response to the CFA. The rat body weight, paw volumes and clinical assessments were monitored closely after the induction. Once the secondary swelling appeared around the opposite rat paws or ankles, the rats were assigned in one of 10 groups (N=5) according to the severity of arthritis (e.g. the paw volume) and the treatments started at that time (see Table 4).
Rat arthritis was evaluated for body weight, paw volumes and clinical score once every other day. Special care including placing water and food gel supplements in the cages were given for those rats once it became difficult to move around due to their hind limb arthritis. The severity of arthritis was scored by visual inspection. Three un-injected paws were scored on a scale of 0 to 4, where 0=normal; 1, only on few digits; 2, on the paw; 3, on the ankle and 4, all swelling below ankle. The maximum score was 12. In addition to daily scores, the maximum arthritis index (MAI) was calculated at the end of the study for each rat by adding the greatest score recorded for each paw. Foot swelling was also determined objectively by measuring paw volume with a plethysmograph for the secondary arthritis (un-injected foot) and thickness using a caliper for the primary arthritis (injected foot).
Treatment Preparation: Dexamethasone stock was first dissolved in dimethyl sulfoxide at 1 mg/ml and kept in dark at room temperature. The corresponding dosing solution was prepared prior to each treatment by a 1:10 fold dilution with phosphate buffered saline (PBS). The dexamethasone dosing solution was given to the rats subcutaneously (SC) at 10 mL/kg. Tofacitinib (unconjugated parent drug) was added in 5% methylcellulose at 1 mg/mL and 0.25% of Tween-80. A homogeneous dosing suspension of tofacitinib was prepared using a mechanical homogenizer. The tofacitinib suspension was prepared daily and was given to rats by an oral gavage at 10 mL/kg. CDP-hexanoate-tofacitinib conjugate nanoparticles were kept in 4° C. until the end of the dosing period. They were given to their respective groups of rats by subcutaneous route at 10 mL/kg.

The conditions of data set [2]: Tofacitinib dosed 5 mg PO twice daily; cited from earlier work.
Data set [3] is described as follows: Drug release and stability of CDP-linker-Tofacitinib conjugate nanoparticles in PBS. The data set is classed as physicochemical. The following applies: 1x PBS pH 7.4, 37° C.; for In vitro release of free drug (24 hrs in PBS at 37° C.): free drug/conjugated drug. The procedure:
The drug release and stability method experiments were run using the following CDP-linker-Tofacitinib nanoparticles: CDP-Gly-Tofac (prepared by the method described in Example 5) and CDP-Hex-Tofac) (prepared by the method described in Example 10).
A 2.5 mg/mL (with regard to polymer) solution of each CDP-linker-Tofac nanoparticle was prepared in lx PBS buffer (pH=7.4). An aliquot of 150 μL was transferred into corresponding HPLC vials. A vial containing each CDP-linker-Tofac nanoparticle in PBS pH 7.4 for each designated time point was placed in a water bath at 37° C. Samples were mixed using a water bath shaker at 100 rpm during the experiments. At each designated time point, a vial was removed for each CDP-linker-Tofac nanoparticle and processed for HPLC using a sample preparation procedure.
To prepare a sample for HPLC analysis, each vial containing 150 μL of sample was mixed with 75 μL of 0.1% formic acid in acetonitrile. If there was any precipitated material in the vial, the contents were also stirred to dissolve the precipitate. If the sample was still opaque, an additional 25 μL of 0.1% formic acid in acetonitrile was added. HPLC analysis was used to determine the amount of free Tofacitinib and the amount of conjugated Tofacitinib in the sample for a given time point.
For the HPLC analysis at each time point, the peak areas of all relevant peaks from the chromatograms were retrieved and the concentration of free and conjugated Tofacitinib was calculated. The sample degradation was calculated based on the percentage of the amount of conjugated drug with regard to the initial starting point of the experiment (at t=0). The drug release was calculated based on the sum of free Tofacitinib and Tofacitinib main degradants at each time point.

Data set [4] can be described thus: Pharmacokinetic study, plasma levels of free and bound Tofacitinib by HPLC/MS/MS. Also noted: Cl: unit not given here. The following applies: mice; for AUC / Cl / Vd / t1/2: analyte: Conjugate, single bolus 3 mg/kg; for Bioavailability via SC, of the IV based on AUC / Half-life for conjugate after SC dosing relative to the IV dose: 3 mg/kg SC vs IV; for IV AUC relative to the drug dosed PO alone: conjugate IV vs unconjugated tofacitinib PO. It counts as in vivo, Mice (C57 B16 strain). The procedure:
Mice (C57 B16 strain) were treated by single bolus injection of each linker at 3 mg/kg. Blood samples were collected from individual animals and plasma made using EDTA as an anticoagulant. Levels of free and bound Tofacitinib were measured in the plasma samples using HPLC/MS/MS.

Data set [5] can be described thus: Particle size of formulated nanoparticles (particle sizer). The data set is classed as physicochemical. The following applies: nanoparticles in water after TFF and 0.22 µm filtration. The procedure: (§1) The reaction mixture was worked up by precipitating the polymer in 15 volumes of acetone (150 mL). The polymer precipitated out immediately as a lump. The solution was stirred for 30 minutes and then the slightly turbid supernatant was decanted. The polymer precipitate was stirred in […] for 30 minutes and then dissolved 70 mL of water to prepare a ˜10 mg/mL polymer concentration. The polymer dissolved smoothly in water and the polymer solution was then filtered through a 0.22 p.m PES membrane. This solution was then washed using TFF (3×30K capsules) using 10 volumes of ultrapure water at pH 3. After diafiltration, the solution was concentrated down to approximately half the volume and the concentrated solution was filtered with a 0.22 p.m cellulose nitrate membrane. The filtered solution was analyzed for particle size using a particle sizer and Tofacitinib concentration using HPLC.
as §1, with “in 90” for “70”

Take `C[C@@H]1C[C@H]2[C@@H]3CCC4=CC(=O)C=C[C@]4(C)[C@@]3(F)[C@@H](O)C[C@]2(C)[C@@]1(O)C(=O)CO` [Dexamethasone, reference compound]: in data set [1] (1 mg/kg, q2d x 7, sc), the “AVE Spleen Weight” value came out at 0.253 g, the “MAI (maximum arthritis index)” value was 29, the “% Max Change in Paw Volume” value was “+26.5% (d13)” and the “% Max Change in body weight” value is given as −13.5% (d18). For the same molecule, the “Spleen weight with treatment (in words)” value in data set [1] (AIA rats) is “declined”.

For `C[C@@H]1CCN(C(=O)CC#N)C[C@@H]1N(C)c1ncnc2[nH]ccc12` [Tofacitinib, reference compound], the half-life in data set [2] was 3 to 5 h. Moreover, in data set [1] (10 mg/kg, bid x 14, po), the “AVE Spleen Weight” value is given as 0.392 g, the “MAI (maximum arthritis index)” value is listed as 30, the “% Max Change in Paw Volume” value was “+30.7% (D14)” and the “% Max Change in body weight” value was −9.0% (d13). The “Spleen weight with treatment (in words)” value in data set [1] (AIA rats) is recorded as “declined”.

For the molecule “CDP-Tofacitinib Ethylene Glycol Monoglycinate [CDP-Glycine-Tofacitinib]”, in data set [3], the “In vitro degradation of conjugate (24 hrs in PBS at 37° C.)” value stood at 15.23% and the “In vitro release of free drug (24 hrs in PBS at 37° C.)” value (from here on “In vitro release of free drug”) worked out at 9.45%. Further, the “In vitro release of free drug” value in data set [3] (listed as CDP-Glycine-Tofac) worked out at 9.45%. In data set [4] (route IV, plasma), this molecule came in with an AUC of 2061.85 µg·h/mL, a Cl of 0.04, a Vd of 2.6 mL and a t1/2 of 50 h. In data set [4] (route SC, plasma), this molecule had an AUC of 1254.162 µg·h/mL, a Cl of 0.06, a Vd of 2.4 mL and a t1/2 of 28 h. Further, in data set [4], the “Bioavailability via SC, of the IV based on AUC” value (shortened to “Bioavailability via SC”) is 60%; the “Half-life for conjugate after SC dosing relative to the IV dose” value is “doubling of half-life”; the “IV AUC relative to the drug dosed PO alone” value is recorded as around 1000 ×. Further, the “Free levels, of the circulating conjugate” value in data set [4] (3 mg/kg, plasma) is “less than 1%”. Also, in data set [5], the Dv50 is 11.4 nm, the Dv90 was determined as 19.8 nm, the “Particle PDI” value was 0.418 and the Zavg came to 26.23 nm.

Consider “CDP-Tofacitinib Ethylene Glycol Monohexanoate [CDP-Hexanoate-Tofacitinib]”, for which, in data set [3], the “In vitro degradation of conjugate (24 hrs in PBS at 37° C.)” value is given as 3.54% and the “In vitro release of free drug” value amounted to 2.06%. Besides, the “In vitro release of free drug” value in data set [3] (listed as CDP-Hex-Tofac) stood at 2.06%. Besides, in data set [1] (0.3 mg/kg, q7d x 2, sc), the “AVE Spleen Weight” value is listed as 0.643 g, the “MAI (maximum arthritis index)” value stood at 41, the “% Max Change in Paw Volume” value is on record as “+48.0% (d16)” and the “% Max Change in body weight” value is reported as −12.9% (d16). In data set [1] (1 mg/kg, q7d x 2, sc), the “AVE Spleen Weight” value is on record as 0.642 g, the “MAI (maximum arthritis index)” value amounted to 46, the “% Max Change in Paw Volume” value was “+45.2% (d16)” and the “% Max Change in body weight” value is −14.5% (d18). For the same molecule, the “Paw volume as a percent of the initial paw volume (Day 1)” value in data set [1] (3 mg/kg q7d×2 sc, after two cycles (28 days), FIG. 16) was “below 100%”. Also, in data set [1] (3 mg/kg, q7d x 2, sc), the “AVE Spleen Weight” value was 0.606 g, the “MAI (maximum arthritis index)” value is listed as 39, the “% Max Change in Paw Volume” value is “+42.5% (d16)” and the “% Max Change in body weight” value is given as −9.3% (d13). In addition, in data set [1] (3 mg/kg/week vs. 140 mg/kg/week), the “Cumulative dose giving similar efficacy, of the cumulative dose of unconjugated tofacitinib” value came to 2%. Moreover, the “Spleen weight with treatment (in words)” value in data set [1] (AIA rats) is listed as “maintained”. In addition, the “Ankle swelling after treatment, of initial paw volume” value in data set [1] (AIA rats, level of healthy rats) is recorded as 100%. In data set [4] (route IV, plasma), this molecule displayed an AUC of 1030.865 µg·h/mL, a Cl of 0.07, a Vd of 2.4 mL and a t1/2 of 23.2 h. In addition, in data set [4] (route SC, plasma), the AUC was 569.866 µg·h/mL, the Cl is given as 0.132, the Vd is given as 8.9 mL and the t1/2 was found to be 47 h. Further, in data set [4], the “Half-life for conjugate after SC dosing relative to the IV dose” value is on record as “increased by two fold” and the “IV AUC relative to the drug dosed PO alone” value is on record as around 1000 ×. Further, the “Bioavailability via SC” value in data set [4] (3 mg/kg) was found to be 60%. Further, the “Bioavailability via SC” value in data set [4] (listed as CDP-Hexanoate-Tofacitinib Conjugate, 3 mg/kg) is recorded as “approximately 60%”. Further, in data set [4] (3 mg/kg, plasma), the “Levels of released drug, of the total” value was “approximately 5%”. Besides, in data set [5], the Dv50 is given as 12.8 nm, the Dv90 came out at 21.7 nm, the “Particle PDI” value came to 0.218 and the Zavg is recorded as 20.64 nm.
